In publication PMC5811355:

Biological target: FhuA 13R1 (Escherichia coli) (UniProt P06971)
Test: continuous wave EPR of spin-labelled protein

Chain of UniProt P06971 (P06971 34-747): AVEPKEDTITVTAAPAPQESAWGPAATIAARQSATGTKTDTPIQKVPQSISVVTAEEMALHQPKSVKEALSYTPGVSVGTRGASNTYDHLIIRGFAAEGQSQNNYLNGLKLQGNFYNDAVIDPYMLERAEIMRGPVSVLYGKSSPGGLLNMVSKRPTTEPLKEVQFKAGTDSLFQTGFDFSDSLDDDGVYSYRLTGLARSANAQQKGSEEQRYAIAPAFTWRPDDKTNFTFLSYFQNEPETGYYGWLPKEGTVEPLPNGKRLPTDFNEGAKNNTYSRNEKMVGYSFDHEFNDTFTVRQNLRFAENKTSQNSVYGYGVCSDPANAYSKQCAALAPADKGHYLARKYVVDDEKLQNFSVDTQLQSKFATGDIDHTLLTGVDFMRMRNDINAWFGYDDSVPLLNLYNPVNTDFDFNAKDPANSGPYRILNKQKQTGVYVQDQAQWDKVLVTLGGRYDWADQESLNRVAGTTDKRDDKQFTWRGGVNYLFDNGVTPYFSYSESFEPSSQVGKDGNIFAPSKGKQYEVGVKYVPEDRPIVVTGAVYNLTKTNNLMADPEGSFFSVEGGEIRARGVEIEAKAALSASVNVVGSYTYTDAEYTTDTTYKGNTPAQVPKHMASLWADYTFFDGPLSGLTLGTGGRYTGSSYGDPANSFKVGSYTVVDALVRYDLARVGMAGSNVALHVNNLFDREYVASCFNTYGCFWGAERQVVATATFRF

- fraction of FhuA bound to TonB: 95%
Substance: TonB (103-239) (from UniProt P02929 103-239) (domain or fragment)
